Data taken from US20240352087A1.

Tests used:
Experiment in all cases: HLA-binding assay
[1] = molecular target: B*27:05
[2] = molecular target: A*29:02
[3] = molecular target: B*40:01
[4] = molecular target: B*35:01

IC50 [1] | IC50 [4] | Substance | further results
12 nM |  | E6 83-90 | 
 | 1.4 nM | E5 55-63 | 

The remaining lines, values behind:

Substance | IC50 [1] | IC50 [4] | further results
E6 137-144 | 13 nM |  | 
E5 65-73 |  |  | IC50 [2]: 444 nM
E6 81-90 |  |  | IC50 [3]: 0.54 nM
E6 52-61 |  | 51 nM | 
